Measured values reported in patent publication US20240425593A1.
Read-outs that look alike come from different tables or passages of the source.

Key:
human PD-1-His (human) = human PD-1-His (human) (UniProt Q15116); assay: BLI (Octet ForteBio), antibody on ProA biosensor, PD-1-His in solution
[1] = target: full-length human PD-1 on CHO-hPD-1 cells (human) (UniProt Q15116); assay: flow cytometry, FITC-labelled antibody on CHO-hPD-1 cells
FcRn protein = FcRn protein (UniProt P55899); assay: BLI (Octet ForteBio), FcRn on SA biosensor, antibody in PBST pH6.0
[2] = target: human PD-1-ECD-mFc (human; mouse) (UniProt Q15116); assay: ELISA, coated human PD-1-mFc
human PD-1-ECD-mFc (human; mouse), sequence (Q15116 25-170): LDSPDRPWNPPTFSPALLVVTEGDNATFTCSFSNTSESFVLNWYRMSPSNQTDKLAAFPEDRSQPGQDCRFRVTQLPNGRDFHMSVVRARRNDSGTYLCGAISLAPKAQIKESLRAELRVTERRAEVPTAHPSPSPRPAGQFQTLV

monkey PD-1-hFc (monkey) [3] = assay: ELISA, coated monkey PD-1-hFc
monkey PD-1-hFc (monkey), sequence (chain, as listed by the source limits assumed): as the sequence (Q15116 25-170) above, with D2E, V19L, T35A, Q67R, T144A counted along it

[4] = target: PD-1 on Jurkat-PD-1-NFAT cells (UniProt Q15116); assay: cell-based or functional assay
PD-1 on Jurkat-PD-1-NFAT cells, sequence (Q15116 25-288 limits assumed): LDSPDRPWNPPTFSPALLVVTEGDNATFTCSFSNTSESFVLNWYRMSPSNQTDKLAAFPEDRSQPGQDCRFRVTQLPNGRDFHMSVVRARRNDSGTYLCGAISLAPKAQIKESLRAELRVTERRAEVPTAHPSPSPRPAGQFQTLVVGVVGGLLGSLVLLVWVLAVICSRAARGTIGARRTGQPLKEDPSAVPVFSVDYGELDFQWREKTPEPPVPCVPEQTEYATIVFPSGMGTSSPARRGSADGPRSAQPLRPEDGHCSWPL

[5] = target: full-length human PD-1 on CHO-hPD-1 cells (human) (UniProt Q15116); assay: flow cytometry on CHO-hPD-1 cells with FITC-labeled antibody
CD64 protein = CD64 protein (UniProt P12314); assay: BLI (Octet ForteBio), CD64 on SA biosensor, antibody in solution
CD64 protein, sequence (P12314 16-288 limits assumed): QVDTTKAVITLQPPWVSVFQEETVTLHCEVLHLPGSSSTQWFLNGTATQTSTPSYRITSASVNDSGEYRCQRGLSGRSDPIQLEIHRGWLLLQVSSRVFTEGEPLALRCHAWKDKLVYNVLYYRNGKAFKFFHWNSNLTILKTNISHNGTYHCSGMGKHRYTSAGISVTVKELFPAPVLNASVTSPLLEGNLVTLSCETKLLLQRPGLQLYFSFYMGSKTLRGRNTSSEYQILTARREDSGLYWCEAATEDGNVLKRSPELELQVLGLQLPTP

monkey PD-1-hFc (monkey) [6] = assay: ELISA, coated monkey PD-1-hFc; remark: listed apart in the source

control antibody 3 (tirelizumab, IMGT ID: 757), sequence (HC): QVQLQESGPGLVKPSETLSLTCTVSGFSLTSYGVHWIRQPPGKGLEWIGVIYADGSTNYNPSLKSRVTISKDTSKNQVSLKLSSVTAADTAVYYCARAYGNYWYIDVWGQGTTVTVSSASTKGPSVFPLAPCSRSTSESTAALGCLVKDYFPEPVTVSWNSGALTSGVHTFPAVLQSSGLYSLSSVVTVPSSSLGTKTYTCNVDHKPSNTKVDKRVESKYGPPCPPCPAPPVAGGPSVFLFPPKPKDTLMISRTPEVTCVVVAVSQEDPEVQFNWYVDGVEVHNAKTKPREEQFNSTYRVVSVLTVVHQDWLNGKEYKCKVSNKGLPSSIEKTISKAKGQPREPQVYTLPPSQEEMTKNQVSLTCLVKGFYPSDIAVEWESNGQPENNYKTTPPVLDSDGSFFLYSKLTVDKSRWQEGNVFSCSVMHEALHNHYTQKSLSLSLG
control antibody 3 (tirelizumab, IMGT ID: 757), sequence (LC): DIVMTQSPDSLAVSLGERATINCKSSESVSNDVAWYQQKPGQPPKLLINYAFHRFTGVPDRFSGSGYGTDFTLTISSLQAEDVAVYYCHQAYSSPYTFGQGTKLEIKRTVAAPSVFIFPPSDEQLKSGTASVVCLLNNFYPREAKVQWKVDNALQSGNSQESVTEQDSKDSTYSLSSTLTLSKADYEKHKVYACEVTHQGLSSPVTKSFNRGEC
full-length human PD-1 on CHO-hPD-1 cells (human), sequence (Q15116 25-288): as the sequence (Q15116 25-288 limits assumed) above
human PD-1-His (human), sequence (Q15116 25-170): as the sequence (Q15116 25-170) above

| Kd (human PD-1-His (human)) [nM] | EC50 [1] [nM] | Kd (FcRn protein) [nM] | EC50 [2] [nM] | EC50 (monkey PD-1-hFc (monkey) [3]) [nM] | EC50 by the PD-1/PD-L1 luciferase reporter system [4] [nM] | EC50 (read off the curve) [5] [ng/mL] | Kd (CD64 protein) [nM] | EC50 (monkey PD-1-hFc (monkey) [6]) [nM] | Substance |
| --- | --- | --- | --- | --- | --- | --- | --- | --- | --- |
| 5.95 | 0.094 | 14.5 | 0.121 | 0.278 | 3.79 | 10 | – | – | control antibody 3 (tirelizumab, IMGT ID: 757) |
| – | – | 16.8 | – | 0.32 | – | – | 6.94 | 0.131 | control antibody 1 (pembrolizumab, IMGT ID: 472) |
